For test [1], the target named is recombinant HIV Gag (Pr55^Gag) (HIV). Nature of the test: SPR. For orientation: Surface plasmon resonance follows binding to a sensor surface in real time, without labels.
For test [2] the target is unchanged. Nature of the test: charge detection mass spectrometry.

Several values for one entry are separate records, joined by “and”; a condition that tells them apart may be missing. Identical values can stand only once. Some results are limits rather than exact numbers.

In the case of “recombinant HIV Gag (Pr55^Gag) (natural protein)”, the fold strengthening of homodimerization (SPR Kd) with Ca^2+ in test [1] was below 7 fold. Moreover, the stoichiometry N (as a rule, the number of molecules, sites or subunits per partner or assembly) in test [2] is 125 mers and 220 mers.

These data come from paper PMC8889552.
